Measured values: patent US20220396632A1 (VERSEAU THERAPEUTICS, published 2022)
Where a chain is given by its changes, count along the chain named. Non-standard residues stand in square brackets, D forms with d. No end group written: not given here. *: point of attachment. Biotin = O=C1N[C@H]2[C@H](CS[C@H]2CCCCC(=O)*)N1; sY = N[C@@H](Cc1ccc(OS(=O)(=O)O)cc1)C(=O)O

T1: SulfoTyr C4 peptide (not fully specified; Y4, Y7 and Y9 sulfated (SO3); C-terminal biotin)
T1 construct: also called C4 alpha chain peptide; human sulfotyrosinylated C4 peptide
T1 peptide: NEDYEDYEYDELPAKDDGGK

T2: Recombinant human PSGL-1(ECD)-hFc1 (R&D Systems, Cat. 3345-PS) (human, UniProt Q14242 42-305)
T2 construct: Bought; Gln42-Val295 counted on AAC50061; also called PSGL-1-Fc; PSGL-1-hFc1 chimera; not shown: human IgG1 Fc, Pro100-Lys330
T2 sequence: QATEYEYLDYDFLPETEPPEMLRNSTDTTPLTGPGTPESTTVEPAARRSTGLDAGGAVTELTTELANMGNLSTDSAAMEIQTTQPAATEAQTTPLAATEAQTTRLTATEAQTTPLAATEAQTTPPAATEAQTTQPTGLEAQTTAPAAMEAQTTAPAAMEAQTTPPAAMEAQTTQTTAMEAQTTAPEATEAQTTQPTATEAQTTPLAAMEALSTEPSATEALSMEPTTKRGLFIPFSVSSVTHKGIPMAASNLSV

T3: Human fibrinogen protein (ThermoFisher, RP-43142) (human, UniProt P02671 20-629; P02675 31-491; P02679 27-453, limits assumed, natural sulfotyrosines)
T3 construct: mature; Native dimer with 3 pairs of non-identical chains; also called gamma-fibrinogen; γ fibrinogen protein
T3 sequence (looked up) 1: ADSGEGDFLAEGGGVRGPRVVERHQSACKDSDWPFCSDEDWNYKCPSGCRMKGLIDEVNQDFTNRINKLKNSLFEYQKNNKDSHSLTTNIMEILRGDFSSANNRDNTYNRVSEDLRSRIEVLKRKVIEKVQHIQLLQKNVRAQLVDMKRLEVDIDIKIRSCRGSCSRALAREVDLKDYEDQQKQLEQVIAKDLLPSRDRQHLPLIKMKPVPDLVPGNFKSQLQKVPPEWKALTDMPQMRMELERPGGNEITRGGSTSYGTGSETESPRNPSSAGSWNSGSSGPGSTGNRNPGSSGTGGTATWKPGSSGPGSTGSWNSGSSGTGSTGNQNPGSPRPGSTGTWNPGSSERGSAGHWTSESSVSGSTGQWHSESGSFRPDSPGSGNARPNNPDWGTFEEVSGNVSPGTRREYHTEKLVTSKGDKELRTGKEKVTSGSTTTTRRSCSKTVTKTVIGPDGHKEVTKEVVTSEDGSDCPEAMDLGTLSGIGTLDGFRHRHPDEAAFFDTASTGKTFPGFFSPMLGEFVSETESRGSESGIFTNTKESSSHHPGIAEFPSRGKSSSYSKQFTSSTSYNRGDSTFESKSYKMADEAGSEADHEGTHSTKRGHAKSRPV
T3 sequence (looked up) 2: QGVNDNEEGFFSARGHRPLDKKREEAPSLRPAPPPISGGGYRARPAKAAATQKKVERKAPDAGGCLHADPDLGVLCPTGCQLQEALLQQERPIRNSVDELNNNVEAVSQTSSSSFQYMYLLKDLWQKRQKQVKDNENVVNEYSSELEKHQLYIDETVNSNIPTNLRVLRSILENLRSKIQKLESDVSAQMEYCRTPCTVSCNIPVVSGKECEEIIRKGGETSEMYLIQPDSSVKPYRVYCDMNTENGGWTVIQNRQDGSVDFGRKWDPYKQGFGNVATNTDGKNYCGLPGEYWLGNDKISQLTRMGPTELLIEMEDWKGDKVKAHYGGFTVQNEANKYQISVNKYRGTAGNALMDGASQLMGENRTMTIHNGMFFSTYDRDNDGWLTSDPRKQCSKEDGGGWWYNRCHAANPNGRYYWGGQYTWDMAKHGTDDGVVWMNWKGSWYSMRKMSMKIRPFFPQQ
T3 sequence (looked up) 3: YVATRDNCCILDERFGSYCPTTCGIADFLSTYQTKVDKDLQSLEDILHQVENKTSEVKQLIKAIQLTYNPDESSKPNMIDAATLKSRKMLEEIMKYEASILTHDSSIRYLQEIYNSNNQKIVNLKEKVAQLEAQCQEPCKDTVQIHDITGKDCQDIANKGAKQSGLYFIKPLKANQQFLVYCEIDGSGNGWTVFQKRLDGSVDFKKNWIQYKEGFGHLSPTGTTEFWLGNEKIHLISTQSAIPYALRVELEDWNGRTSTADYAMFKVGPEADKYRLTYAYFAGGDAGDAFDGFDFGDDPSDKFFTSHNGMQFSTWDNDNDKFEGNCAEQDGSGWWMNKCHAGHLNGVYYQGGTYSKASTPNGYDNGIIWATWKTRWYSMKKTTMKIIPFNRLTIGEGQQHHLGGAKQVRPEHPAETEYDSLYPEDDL

T4: Sulfotyrosine CCR2b biotin peptide (human)
T4 construct: also called CCR2b peptide
T4 peptide: TTFFD[sY]D[sY]GAPSHGGK(Biotin)

B1: 19I01 (antibody, V domains shown)
VH: EVQLVESGGGLVKPGGSRKLSCAASGFTFSDYGMHWVRQAPEKGLEWVAYISSGSSTIYYADTVKGRFTISRDNAKNTLFLQMTSLRSEDTAMYYCARGVDGYWGQGTTLTVSS
VL: DVVMTQTPLSLPVSLGDQASISCRSSQSLVHSNGNTYLHWYLQKPGQSPKFLIYKVSNRFSGVPDRFSGSGSGTDFTLKISRVEAEDLGVYFCSQTTHVPLTFGAGTKLELK
notes: From mouse immunisation; only variable domains given; also called 19101
B2: 16L15 (antibody, V domains shown)
VH: DVKLVESGGGLVKLGGSLKLSCAASGFTFSSYYMSWVRQTPEKRLEWVATISNGGGSTYYPDSVKDRFTISRDNAKNTLYLQMSSLNSEDTAVYYCAKPLYYSNPWFAYWGQGTLVTVSA
VL: DVLLTQTPLSLPVSLGDQASISCRSSQSIVHSNGNTYLEWYLQKPGQSPKLLIYKVSNRFSGVPDRFSGSGSGTDFTLKISRVEAEDLGVYYCFQGSHVPRTFGGGTKLEIK
notes: From mouse immunisation; only variable domains given
B3: 5E12 (antibody, V domains shown)
VH: EIQLQQSGAELVRPGASVKLSCTASGFNIKDDYIHWVKQRPEQGLEWIGRIDPANGNTKSAPKFQDKATITADTSSNTAYLHLSSLTSEDTAVYYCSIRFAYWGQGTLVTVSA
VL: DVVMTQTPLSLSVSLGDQASISCRSSQSLVYRNGDTYLHWFLQKPGQSPKLLIYKVSNRFSGVPDRFSGSGSGTDFTLKISRVEAEDLGIYFCSQNTHVPYTFGGGTKLEIK
notes: Mouse hybridoma mAb; only variable domains given
B4: 2E12 (antibody, V domains shown)
VH: QVQLQQSGAELARPGASVKLSCKASGYTFTNYGLNWVKQRTGQGLEWIGEIYPRSGNTYYNEKFKGKATLTADKSSSTAYMQLSSLTSEDSAVYFCATEGAYWGQGTLVTVSA
VL: DIVMTQTPLTLSVTIGQPASISCKSSQSLLHGNGKTYLNWLLQRPGQSPKLLIYLVSKLESGIPDRFSGSGSGTDFTLEISRVEAEDLGIYYCLQSTHFPRTFGGGTKLEIK
notes: as for B3
B5: 20I15 (antibody, V domains shown)
VH: EVKLVESGGGLVQPGGSLSLSCAASGFTFTDYYMSWVRQPPGKALEWLGFIRNKANGYTTEYSASVKGRFTISRDNSQSILYLQMNALRAEDSATYYCARTYLRRGYFDVWGTGTTVTVSS
VL: DIVLTQSPASLAVSLGQRATISCRASKSVSTSGYSYMHWFQQKPGQPPKLLIYLASNLESGVPARFSGSGSGTDFTLNIHPVEEEDAATYYCQHSRELPLTFGAGTKLELK
notes: From mouse immunisation; only variable domains given; also called 20115
B6: 18F02 (antibody, V domains shown)
VH: QVQLQQPGAELVKPGASVKLSCKASGYTFTSYWMHWVKQRPGQGLEWIGMIHPNSGRTNYNEKFKSKATLTVDKSSSTAYMQLSSLTSEDSAVYYCARSDYWGQGTTLTVSS
VL: DIVMTQAAFSNPVTLGTSASISCRSSKSLLHSDGITYLYWFLQRPGQSPQLLIYRMSNLASGVPDRFSGSGSGTDFTLRISRVEAEDVGVYYCAQMLEFPRTFGGGTKLEIK
notes: as for B2
B7: 19L04 (antibody, IgG4, V domains shown)
VH: QIQLVQSGPELKKPGETVKISCKASGYTFTTYGMSWVKQAPGKGLKWMGWINTYSGVPTYADDFKGRFAFSLETSASTAYLQINNLKIEDTATYFCARHYYGSHYFDYWGQGTTLTVSS
VL: DIMMTQSPSSLAMSVGQKVTLRCKSSQSLLNSSNQKNYLAWYQQKPGQSPKLLVYFASTRESGVPVRFIGSGSGTDFTLTISSMQAEDLADYFCQQHYFSPLTFGAGTKLELK
notes: as for B2
B8: 19N05 (antibody, V domains shown)
VH: B7 VH with Y60F, I88N, Y94F, H99N, S103N
VL: DVQITQSPSYLAASPGETISINCRASNNINKYLAWYQEKPGKTNKLLIYSGSTLQSGIPSRFSGSGSGTDFTLTISSLEPEDFAMYHCQQHNYYPLTFGAGTKLELK
notes: as for B2

Target: T1, SulfoTyr C4 peptide
Experiment: ELISA, 50 nM mAb
Description: (§1) Recombinant PSGL-1-hFc1 chimera protein consisting of PSGL-1's extracellular domain (ECD) served as a positive control. […] Primary antibody was added (25 ul per well) in duplicate at 50 nM in assay buffer (blocking buffer containing 0.05% Tween®20) into test and control (just blocked) wells and the plate incubated for 45 min at 37° C.

Binder	binding normalized to PSGL-1	binding result
B1	-0.01	no binding (tested: 50 nM)
B2	0.01	no binding (tested: 50 nM)
B3	0.03	
B4	0.03	
B5	0.34	
B6		no binding (tested: 50 nM)

Target: T2, Recombinant human PSGL-1(ECD)-hFc1 (R&D …)
Experiment: ELISA, 50 nM mAb
Description: as §1

Binder	A450nm [A450nm]
B1	2.33
B2	2.33
B3	2.05
B4	1.99
B5	2.45
B6	2.33

Target: T5, Human complement C4 protein (Millipore Sigma, Cat. 204886) (human, UniProt P0C0L4 20-675; P0C0L4 680-1446; P0C0L4 1454-1744, limits assumed, natural sulfotyrosines)
T5 construct: mature
T5 sequence (P0C0L4 20-675 limits assumed, form in doubt, chain 1 of 3): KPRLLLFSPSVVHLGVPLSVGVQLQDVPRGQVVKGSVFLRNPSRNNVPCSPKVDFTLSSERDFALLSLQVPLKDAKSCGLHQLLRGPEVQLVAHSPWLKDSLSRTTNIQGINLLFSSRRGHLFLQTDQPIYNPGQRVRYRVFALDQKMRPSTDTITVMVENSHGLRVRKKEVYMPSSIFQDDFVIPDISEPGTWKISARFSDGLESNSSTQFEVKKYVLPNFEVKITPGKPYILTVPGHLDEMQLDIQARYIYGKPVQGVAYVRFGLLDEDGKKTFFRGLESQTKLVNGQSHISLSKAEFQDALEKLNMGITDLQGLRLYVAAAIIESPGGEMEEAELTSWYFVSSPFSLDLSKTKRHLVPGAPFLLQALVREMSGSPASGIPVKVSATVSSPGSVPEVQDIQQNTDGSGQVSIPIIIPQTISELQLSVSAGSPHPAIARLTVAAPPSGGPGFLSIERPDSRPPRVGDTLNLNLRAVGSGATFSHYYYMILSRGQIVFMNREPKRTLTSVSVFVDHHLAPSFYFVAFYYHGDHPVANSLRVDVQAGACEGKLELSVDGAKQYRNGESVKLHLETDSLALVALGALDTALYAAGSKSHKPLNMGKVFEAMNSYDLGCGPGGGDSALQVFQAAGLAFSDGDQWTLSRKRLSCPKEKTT
T5 sequence (P0C0L4 680-1446 limits assumed, form in doubt, chain 2 of 3): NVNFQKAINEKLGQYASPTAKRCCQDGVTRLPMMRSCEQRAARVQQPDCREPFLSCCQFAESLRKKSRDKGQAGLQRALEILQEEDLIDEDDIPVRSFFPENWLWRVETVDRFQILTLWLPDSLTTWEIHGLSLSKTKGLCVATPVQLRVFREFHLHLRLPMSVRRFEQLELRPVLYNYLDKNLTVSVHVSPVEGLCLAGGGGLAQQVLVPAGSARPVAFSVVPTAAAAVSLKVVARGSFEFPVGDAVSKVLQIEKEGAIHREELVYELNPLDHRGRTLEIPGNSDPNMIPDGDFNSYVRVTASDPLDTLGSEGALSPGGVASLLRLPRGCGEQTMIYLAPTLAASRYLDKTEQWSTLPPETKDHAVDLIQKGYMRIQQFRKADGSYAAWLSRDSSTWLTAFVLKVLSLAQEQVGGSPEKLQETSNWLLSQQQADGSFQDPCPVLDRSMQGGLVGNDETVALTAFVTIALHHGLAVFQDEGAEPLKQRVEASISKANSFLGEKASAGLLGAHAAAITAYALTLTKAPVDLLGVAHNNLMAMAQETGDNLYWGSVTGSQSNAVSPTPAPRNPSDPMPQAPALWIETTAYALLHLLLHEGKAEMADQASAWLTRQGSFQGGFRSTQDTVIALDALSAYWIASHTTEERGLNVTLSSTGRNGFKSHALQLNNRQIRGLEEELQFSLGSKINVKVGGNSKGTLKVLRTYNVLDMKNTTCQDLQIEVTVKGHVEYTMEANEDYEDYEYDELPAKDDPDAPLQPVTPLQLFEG
T5 sequence (P0C0L4 1454-1744 limits assumed, form in doubt, chain 3 of 3): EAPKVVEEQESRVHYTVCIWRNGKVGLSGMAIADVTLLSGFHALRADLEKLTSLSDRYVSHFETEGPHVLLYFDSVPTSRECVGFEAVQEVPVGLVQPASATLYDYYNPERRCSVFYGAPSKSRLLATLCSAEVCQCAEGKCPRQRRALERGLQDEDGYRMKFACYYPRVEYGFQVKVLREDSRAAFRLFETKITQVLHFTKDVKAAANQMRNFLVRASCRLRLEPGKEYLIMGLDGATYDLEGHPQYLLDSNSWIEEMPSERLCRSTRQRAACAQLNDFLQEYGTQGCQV
Experiment: ELISA, 50 nM mAb
Description: as §1

Binder	binding normalized to PSGL-1
B1	-0.01
B2	0.02
B3	0.03
B4	0.1
B5	0.09
B6	0.03

Target: T3, Human fibrinogen protein (ThermoFisher, …)
Experiment: ELISA, 50 nM mAb
Description: as §1

Binder	binding normalized to PSGL-1	binding result
B1	-0.01	no binding (tested: 50 nM)
B2		no binding (tested: 50 nM)
B3	0.03	
B4	1.3	
B5	0.06	
B6	0.01	no binding (tested: 50 nM)

Target: T4, Sulfotyrosine CCR2b biotin peptide
Experiment: ELISA, 50 nM mAb
Description: as §1

Binder	binding normalized to PSGL-1	binding result
B1	0.02	no binding (tested: 50 nM)
B2	0.03	
B3	0.03	
B4	0.03	
B5	0.21	
B6	0.03	

Target: T2, Recombinant human PSGL-1(ECD)-hFc1 (R&D …)
Experiment: blocking ELISA vs P-selectin-Fc
Summary of the method: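 In this competition format, antibodies were titrated in duplicate on PSGL-1-Fc-coated wells (2.5 ug/mL, pH 7.4) for 45 min at 37° C. IC50 values came from sigmoidal fits.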

Binder	% max Block [%]	IC50 [nM]
B1	100	4
B2	100	10
B3	0	
B4	0	
B7	0	
B8	0	
B5	52	100
B6	100	6
